Data on one substance can be found in patent US20240016956A1.

Several values for one entry are separate records, joined by “and”; a condition that tells them apart may be missing. Equal entries are not always repeated.

The target in the experiment is AAV9 capsid (of the vector AAV9.CAG.GFP / AAV9 test virus) (AAV9). As to the kind of experiment: cell-based or functional assay.

Consider “IVIG (intravenous immunoglobulin), a purified mix of IgG obtained from thousands of healthy donors”, for which the AAV9 NAb50 Titer in HEK293 cells (fresh IVIG sample) (reciprocal dilution) was 160 and 320.
